# System: Escherichia coli TOP10
# Test: shrunken log2 fold change of peptide-encoding DNA abundance (4.5 h post-induction vs induction); higher = less antimicrobial activity (less host growth inhibition)
# Conditions: time post-induction: 4.5 h; library: site-saturation at positions 5, 18, 19, 20
# 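Note: peptides expressed intracellularly from a pBAD plasmid library in pooled LB shake-flask culture, induced with 0.3% L-arabinose, DNA abundance read by NGS, three biological replicates, DESeq2 with apeglm shrinkage.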
row,Sequence,shrunken log2 fold change
1,RRIRSRPPRLPRPRPRPDWPPRP,0.149
2,RRIRSRPPRLPRPRPRPDYIPRP,-0.443
3,RRIRSRPPRLPRPRPRPEAHPRP,0.16
4,RRIRSRPPRLPRPRPRPEATPRP,0.72
5,RRIRSRPPRLPRPRPRPECGPRP,0.646
6,RRIRSRPPRLPRPRPRPECIPRP,0.00247
7,RRIRSRPPRLPRPRPRPECTPRP,0.169
8,RRIRSRPPRLPRPRPRPEEPPRP,0.729
9,RRIRSRPPRLPRPRPRPEEWPRP,-0.0481
10,RRIRSRPPRLPRPRPRPEFCPRP,0.132
11,RRIRSRPPRLPRPRPRPEFEPRP,0.731
12,RRIRSRPPRLPRPRPRPEFWPRP,0.281
13,RRIRSRPPRLPRPRPRPEGQPRP,0.193
14,RRIRSRPPRLPRPRPRPEHSPRP,-0.182
15,RRIRSRPPRLPRPRPRPEICPRP,0.0531
16,RRIRSRPPRLPRPRPRPEIMPRP,0.0625
17,RRIRSRPPRLPRPRPRPELGPRP,0.547
18,RRIRSRPPRLPRPRPRPENCPRP,0.00362
19,RRIRSRPPRLPRPRPRPENPPRP,-0.143
20,RRIRSRPPRLPRPRPRPENWPRP,-0.0386
21,RRIRSRPPRLPRPRPRPEPMPRP,0.54
22,RRIRSRPPRLPRPRPRPEPNPRP,0.374
23,RRIRSRPPRLPRPRPRPEQIPRP,0.157
24,RRIRSRPPRLPRPRPRPERPPRP,0.384
25,RRIRSRPPRLPRPRPRPERRPRP,0.23

row,Sequence,shrunken log2 fold change
1,RRIRSRPPRLPRPRPRPERYPRP,-0.037
2,RRIRSRPPRLPRPRPRPESDPRP,0.306
3,RRIRSRPPRLPRPRPRPESLPRP,0.0154
4,RRIRSRPPRLPRPRPRPESWPRP,0.762
5,RRIRSRPPRLPRPRPRPETAPRP,0.667
6,RRIRSRPPRLPRPRPRPEWAPRP,0.273
7,RRIRSRPPRLPRPRPRPEWKPRP,0.14
8,RRIRSRPPRLPRPRPRPEYNPRP,-0.229
9,RRIRSRPPRLPRPRPRPFADPRP,-0.0303
10,RRIRSRPPRLPRPRPRPFCCPRP,-0.14
11,RRIRSRPPRLPRPRPRPFCKPRP,-0.449
12,RRIRSRPPRLPRPRPRPFDEPRP,0.0719
13,RRIRSRPPRLPRPRPRPFDFPRP,-0.241
14,RRIRSRPPRLPRPRPRPFEMPRP,-0.353
15,RRIRSRPPRLPRPRPRPFHWPRP,-0.108
16,RRIRSRPPRLPRPRPRPFIKPRP,-0.275
17,RRIRSRPPRLPRPRPRPFITPRP,-0.798
18,RRIRSRPPRLPRPRPRPFLKPRP,-0.632
19,RRIRSRPPRLPRPRPRPFMEPRP,-0.54
20,RRIRSRPPRLPRPRPRPFMNPRP,-0.147
21,RRIRSRPPRLPRPRPRPFNIPRP,-0.109
22,RRIRSRPPRLPRPRPRPFNMPRP,-0.907
23,RRIRSRPPRLPRPRPRPFQQPRP,0.000179
24,RRIRSRPPRLPRPRPRPFREPRP,0.0536
25,RRIRSRPPRLPRPRPRPFRGPRP,-0.242

row,Sequence,shrunken log2 fold change
1,RRIRSRPPRLPRPRPRPFRNPRP,-0.225
2,RRIRSRPPRLPRPRPRPFRWPRP,0.119
3,RRIRSRPPRLPRPRPRPFSFPRP,-0.633
4,RRIRSRPPRLPRPRPRPFWIPRP,-0.299
5,RRIRSRPPRLPRPRPRPFYSPRP,-0.131
6,RRIRSRPPRLPRPRPRPGAYPRP,-0.0377
7,RRIRSRPPRLPRPRPRPGCHPRP,0.328
8,RRIRSRPPRLPRPRPRPGCIPRP,0.0242
9,RRIRSRPPRLPRPRPRPGEEPRP,0.499
10,RRIRSRPPRLPRPRPRPGFVPRP,0.287
11,RRIRSRPPRLPRPRPRPGGDPRP,0.514
12,RRIRSRPPRLPRPRPRPGHRPRP,-0.326
13,RRIRSRPPRLPRPRPRPGIRPRP,0.694
14,RRIRSRPPRLPRPRPRPGIVPRP,0.119
15,RRIRSRPPRLPRPRPRPGKPPRP,0.0657
16,RRIRSRPPRLPRPRPRPGKRPRP,-0.0142
17,RRIRSRPPRLPRPRPRPGLQPRP,0.652
18,RRIRSRPPRLPRPRPRPGLSPRP,0.245
19,RRIRSRPPRLPRPRPRPGMAPRP,0.0998
20,RRIRSRPPRLPRPRPRPGMCPRP,0.0439
21,RRIRSRPPRLPRPRPRPGMGPRP,0.0599
22,RRIRSRPPRLPRPRPRPGMSPRP,-0.0403
23,RRIRSRPPRLPRPRPRPGPHPRP,-0.109
24,RRIRSRPPRLPRPRPRPGPIPRP,0.298
25,RRIRSRPPRLPRPRPRPGPPPRP,0.46

row,Sequence,shrunken log2 fold change
1,RRIRSRPPRLPRPRPRPGQHPRP,0.178
2,RRIRSRPPRLPRPRPRPGQIPRP,-0.227
3,RRIRSRPPRLPRPRPRPGTEPRP,0.0221
4,RRIRSRPPRLPRPRPRPGTWPRP,0.358
5,RRIRSRPPRLPRPRPRPGVHPRP,-0.035
6,RRIRSRPPRLPRPRPRPGVTPRP,0.0674
7,RRIRSRPPRLPRPRPRPHAKPRP,-0.288
8,RRIRSRPPRLPRPRPRPHCEPRP,-0.0301
9,RRIRSRPPRLPRPRPRPHCSPRP,-0.686
10,RRIRSRPPRLPRPRPRPHDDPRP,-0.114
11,RRIRSRPPRLPRPRPRPHEEPRP,0.0919
12,RRIRSRPPRLPRPRPRPHFCPRP,-0.29
13,RRIRSRPPRLPRPRPRPHFGPRP,-0.195
14,RRIRSRPPRLPRPRPRPHFMPRP,-0.48
15,RRIRSRPPRLPRPRPRPHFPPRP,-0.397
16,RRIRSRPPRLPRPRPRPHHDPRP,-0.759
17,RRIRSRPPRLPRPRPRPHHSPRP,-0.464
18,RRIRSRPPRLPRPRPRPHKNPRP,-0.283
19,RRIRSRPPRLPRPRPRPHKPPRP,-0.507
20,RRIRSRPPRLPRPRPRPHLKPRP,-0.137
21,RRIRSRPPRLPRPRPRPHLYPRP,-0.02
22,RRIRSRPPRLPRPRPRPHMQPRP,-0.264
23,RRIRSRPPRLPRPRPRPHNGPRP,0.00483
24,RRIRSRPPRLPRPRPRPHNRPRP,0.0124
25,RRIRSRPPRLPRPRPRPHPQPRP,0.0419

row,Sequence,shrunken log2 fold change
1,RRIRSRPPRLPRPRPRPHQQPRP,-0.0386
2,RRIRSRPPRLPRPRPRPHQYPRP,-0.549
3,RRIRSRPPRLPRPRPRPHRFPRP,-0.301
4,RRIRSRPPRLPRPRPRPHRGPRP,-0.128
5,RRIRSRPPRLPRPRPRPHRWPRP,0.0724
6,RRIRSRPPRLPRPRPRPHSDPRP,-0.0834
7,RRIRSRPPRLPRPRPRPHWVPRP,-0.166
8,RRIRSRPPRLPRPRPRPHWYPRP,-0.648
9,RRIRSRPPRLPRPRPRPIAYPRP,-0.0673
10,RRIRSRPPRLPRPRPRPICAPRP,0.47
11,RRIRSRPPRLPRPRPRPIHSPRP,-0.567
12,RRIRSRPPRLPRPRPRPILLPRP,-0.334
13,RRIRSRPPRLPRPRPRPIPEPRP,0.208
14,RRIRSRPPRLPRPRPRPIPSPRP,-0.00523
15,RRIRSRPPRLPRPRPRPIQYPRP,-0.383
16,RRIRSRPPRLPRPRPRPIRPPRP,-0.157
17,RRIRSRPPRLPRPRPRPISKPRP,-0.211
18,RRIRSRPPRLPRPRPRPIVDPRP,0.115
19,RRIRSRPPRLPRPRPRPIYDPRP,0.0384
20,RRIRSRPPRLPRPRPRPIYNPRP,-0.785
21,RRIRSRPPRLPRPRPRPKDTPRP,-0.145
22,RRIRSRPPRLPRPRPRPKEPPRP,-0.0411
23,RRIRSRPPRLPRPRPRPKGWPRP,1.19
24,RRIRSRPPRLPRPRPRPKHFPRP,0.0852
25,RRIRSRPPRLPRPRPRPKHRPRP,-0.00685

row,Sequence,shrunken log2 fold change
1,RRIRSRPPRLPRPRPRPKIHPRP,-0.0501
2,RRIRSRPPRLPRPRPRPKIIPRP,-0.0525
3,RRIRSRPPRLPRPRPRPKKWPRP,0.0341
4,RRIRSRPPRLPRPRPRPKLQPRP,0.117
5,RRIRSRPPRLPRPRPRPKPCPRP,0.122
6,RRIRSRPPRLPRPRPRPKPFPRP,-0.646
7,RRIRSRPPRLPRPRPRPKQLPRP,0.0372
8,RRIRSRPPRLPRPRPRPKQRPRP,0.161
9,RRIRSRPPRLPRPRPRPKRDPRP,0.0509
10,RRIRSRPPRLPRPRPRPKTNPRP,0.00294
11,RRIRSRPPRLPRPRPRPKVKPRP,0.0666
12,RRIRSRPPRLPRPRPRPKWYPRP,-0.336
13,RRIRSRPPRLPRPRPRPKYRPRP,0.127
14,RRIRSRPPRLPRPRPRPLAGPRP,0.225
15,RRIRSRPPRLPRPRPRPLAMPRP,0.087
16,RRIRSRPPRLPRPRPRPLCAPRP,0.281
17,RRIRSRPPRLPRPRPRPLCWPRP,0.131
18,RRIRSRPPRLPRPRPRPLDGPRP,-0.365
19,RRIRSRPPRLPRPRPRPLDPPRP,-0.0203
20,RRIRSRPPRLPRPRPRPLFAPRP,0.0687
21,RRIRSRPPRLPRPRPRPLHAPRP,0.556
22,RRIRSRPPRLPRPRPRPLHCPRP,0.0547
23,RRIRSRPPRLPRPRPRPLIKPRP,-0.258
24,RRIRSRPPRLPRPRPRPLKIPRP,-0.309
25,RRIRSRPPRLPRPRPRPLLNPRP,-0.117
